In patent US12618845B2, “Methods and compositions for protein sequencing” (Quantum-Si Incorporated, priority 2018, dated 2026):
Where two headings read alike, the source gives them in different places.

B1: Rat APN (protein)
chain: KPWNQYRLPKTLIPDSYQVTLRPYLTPNEQGLYIFKGSSTVRFTCNETTNVIIIHSKKLNYTNKGNHRVALRALGDTPAPNIDTTELVERTEYLVVHLQGSLVKGHQYEMDSEFQGELADDLAGFYRSEYMEGGNKKVVATTQMQAADARKSFPCFDEPAMKASFNITLIHPNNLTALSNMLPKDSRTLQEDPSWNVTEFHPTPKMSTYLLAYIVSEFKYVEAVSPNRVQIRIWARPSAIDEGHGDYALQVTGPILNFFAQHYNTAYPLEKSDQIALPDFNAGAMENWGLVTYRESALVFDPQSSSISNKERVVTVIAHELAHQWFGNLVTVDWWNDLWLNEGFASYVEFLGADYAEPTWNLKDLIVLNDVYRVMAVDALASSHPLSSPANEVNTPAQISELFDSITYSKGASVLRMLSSFLTEDLFKKGLSSYLHTFQYSNTIYLDLWEHLQQAVDSQTAIKLPASVSTIMDRWILQMGFPVITVNTSTGEIYQEHFLLDPTSKPTRPSDFNYLWIVPIPYLKNGKEDHYWLETEKNQSAEFQTSSNEWLLLNINVTGYYQVNYDENNWRKIQNQLQTDLSVIPVINRAQIIHDSFNLASAGKLSITLPLSNTLFLASETEYMPWEAALSSLNYFKLMFDRSEVYGPMKRYLKKQVTPLFAYFKIKTNNWLDRPPTLMEQYNEINAISTACSSGLEECRDLVVGLYSQWMNNSDNNPIHPNLRSTVYCNAIAFGGEEEWNFAWEQFRKATLVNEADKLRSALACSNEVWILNRYLSYTLNPDYIRKQDATSTIVSIANNVVGQTLVWDFVRSNWKKLFEDYGGGSFSFANLIQGVTRRFSSEFELQQLEQFKEDNSATGFGSGTRALEQALEKTKANIKWVKENKDVVLKWFTENS
B2: hTET: Pyrococcus horikoshii TET aminopeptidase, SEQ ID NO: 59 (protein, listed as Pyrococcus horikoshii)
chain: MEVRNMVDYELLKKVVEAPGVSGYEFLGIRDVVIEEIKDYVDEVKVDKLGNVIAHKKGEGPKVMIAAHMDQIGLMVTHIEKNGFLRVAPIGGVDPKTLIAQRFKVWIDKGKFIYGVGASVPPHIQKPEDRKKAPDWDQIFIDIGAESKEEAEDMGVKIGTVITWDGRLERLGKHRFVSIAFDDRIAVYTILEVAKQLKDAKADVYFVATVQEEVGLRGARTSAFGIEPDYGFAIDVTIAADIPGTPEHKQVTHLGKGTAIKIMDRSVICHPTIVRWLEELAKKHEIPYQLEILLGGGTDAGAIHLTKAGVPTGALSVPARYIHSNTEVVDERDVDATVELMTKALENIHELKI
B3: PfuTET: Pfu aminopeptidase I (protein)
chain: MVDWELMKKIIESPGVSGYEHLGIRDLVVDILKDVADEVKIDKLGNVIAHFKGSAPKVMVAAHMDKIGLMVNHIDKDGYLRVVPIGGVLPETLIAQKIRFFTEKGERYGVVGVLPPHLRREAKDQGGKIDWDSIIVDVGASSREEAEEMGFRIGTIGEFAPNFTRLSEHRFATPYLDDRICLYAMIEAARQLGEHEADIYIVASVQEEIGLRGARVASFAIDPEVGIAMDVTFAKQPNDKGKIVPELGKGPVMDVGPNINPKLRQFADEVAKKYEIPLQVEPSPRPTGTDANVMQINREGVATAVLSIPIRYMHSQVELADARDVDNTIKLAKALLEELKPMDFTPLE

Test system: peptide substrates
Assay type: biochemical
[1] = substrate AAPFQQ (SEQ ID NO: 118), 1 mM Peptide, 1 μM enzyme, 10 mM Mg(OAc)2, 50 mM MOPS pH 8, 60 mM KOAc, RT/0.5 hr
[2] = substrate CCPFQQ (SEQ ID NO: 144), 1 mM Peptide, 1 μM enzyme, 10 mM Mg(OAc)2, 50 mM MOPS pH 8, 60 mM KOAc, RT/0.5 hr
[3] = substrate DDPFQQ (SEQ ID NO: 126), 1 mM Peptide, 1 μM enzyme, 10 mM Mg(OAc)2, 50 mM MOPS pH 8, 60 mM KOAc, RT/0.5 hr
[4] = substrate EEPFQQ (SEQ ID NO: 128), 1 mM Peptide, 1 uM enzyme, 10 mM Mg(OAc)2, 50 mM MOPS pH 8, 60 mM KOAc, RT/0.5 hr
[5] = substrate FFPFQQ (SEQ ID NO: 124), 1 mM Peptide, 1 μM enzyme, 10 mM Mg(OAc)2, 50 mM MOPS pH 8, 60 mM KOAc, RT/0.5 hr
[6] = substrate GGPFQQ (SEQ ID NO: 152), 1 mM Peptide, 1 uM enzyme, 10 mM Mg(OAc)2, 50 mM MOPS pH 8, 60 mM KOAc, RT/0.5 hr
[7] = substrate HHPFQQ (SEQ ID NO: 154), 1 mM Peptide, 1 uM enzyme, 10 mM Mg(OAc)2, 50 mM MOPS pH 8, 60 mM KOAc, RT/0.5 hr
[8] = substrate IIPFQQ (SEQ ID NO: 136), 1 mM Peptide, 1 μM enzyme, 10 mM Mg(OAc)2, 50 mM MOPS pH 8, 60 mM KOAc, RT/0.5 hr
[9] = substrate KKPFQQ (SEQ ID NO: 120), 1 mM Peptide, 1 uM enzyme, 10 mM Mg(OAc)2, 50 mM MOPS pH 8, 60 mM KOAc, RT/0.5 hr
[10] = substrate LLPFQQ (SEQ ID NO: 138), 1 mM Peptide, 1 μM enzyme, 10 mM Mg(OAc)2, 50 mM MOPS pH 8, 60 mM KOAc, RT/0.5 hr
[11] = substrate MMPFQQ (SEQ ID NO: 148), 1 mM Peptide, 1 uM enzyme, 10 mM Mg(OAc)2, 50 mM MOPS pH 8, 60 mM KOAc, RT/0.5 hr
[12] = substrate NNPFQQ (SEQ ID NO: 130), 1 mM Peptide, 1 μM enzyme, 10 mM Mg(OAc)2, 50 mM MOPS pH 8, 60 mM KOAc, RT/0.5 hr
[13] = substrate PPPFQQ (SEQ ID NO: 150), 1 mM Peptide, 1 uM enzyme, 10 mM Mg(OAc)2, 50 mM MOPS pH 8, 60 mM KOAc, RT/0.5 hr
[14] = substrate QQPFQQ (SEQ ID NO: 132), 1 mM Peptide, 1 μM enzyme, 10 mM Mg(OAc)2, 50 mM MOPS pH 8, 60 mM KOAc, RT/0.5 hr
[15] = substrate RRPFQQ (SEQ ID NO: 116), 1 mM Peptide, 1 uM enzyme, 10 mM Mg(OAc)2, 50 mM MOPS pH 8, 60 mM KOAc, RT/0.5 hr
[16] = substrate SSPFQQ (SEQ ID NO: 140), 1 mM Peptide, 1 μM enzyme, 10 mM Mg(OAc)2, 50 mM MOPS pH 8, 60 mM KOAc, RT/0.5 hr
[17] = substrate TTPFQQ (SEQ ID NO: 142), 1 mM Peptide, 1 μM enzyme, 10 mM Mg(OAc)2, 50 mM MOPS pH 8, 60 mM KOAc, RT/0.5 hr
[18] = substrate VVPFQQ (SEQ ID NO: 134), 1 mM Peptide, 1 μM enzyme, 10 mM Mg(OAc)2, 50 mM MOPS pH 8, 60 mM KOAc, RT/0.5 hr
[19] = substrate WWPFQQ (SEQ ID NO: 146), 1 mM Peptide, 1 μM enzyme, 10 mM Mg(OAc)2, 50 mM MOPS pH 8, 60 mM KOAc, RT/0.5 hr
[20] = substrate YYPFQQ (SEQ ID NO: 122), 1 mM Peptide, 1 μM enzyme, 10 mM Mg(OAc)2, 50 mM MOPS pH 8, 60 mM KOAc, RT/0.5 hr

Molecule | HPLC Assay Conv [1] | HPLC Assay Conv [2] | HPLC Assay Conv [3] | HPLC Assay Conv [4] | HPLC Assay Conv [5] | HPLC Assay Conv [6] | HPLC Assay Conv [7] | HPLC Assay Conv [8] | HPLC Assay Conv [9] | HPLC Assay Conv [10] | HPLC Assay Conv [11] | HPLC Assay Conv [12] | HPLC Assay Conv [13] | HPLC Assay Conv [14] | HPLC Assay Conv [15] | HPLC Assay Conv [16] | HPLC Assay Conv [17] | HPLC Assay Conv [18] | HPLC Assay Conv [19] | HPLC Assay Conv [20] | other results
B1 | – | – | – | – | – | – | – | – | – | – | – | – | – | – | – | – | – | – | – | – | HPLC Assay Conv (substrate AAPAAP{LYSN3}NH2 (SEQ ID NO: 98), 1 mM peptide, 50 nM enzyme, 2.5 mM ZnCl2, 25 mM Tris pH 8.0, 30° C./1 hr): 100%; HPLC Assay Conv (substrate KKMKKMLys-Triazole-PEG4 Biotin (SEQ ID NO: 89), 1 mM peptide, 150 nM enzyme, 2.5 mM ZnCl2 25 mM Tris pH 8.0, 30° C./1 hr): >90%; HPLC Assay Conv (substrate KKMKKM{LYSN3}NH2 (SEQ ID NO: 71), 1 mM peptide, 50 nM enzyme, 2.5 mM ZnCl2, 25 mM Tris pH 8.0, 30° C./1 hr): 50%; HPLC Assay Conv (substrate KKPKKP{LYSN3}NH2 (SEQ ID NO: 100), 1 mM peptide, 50 nM enzyme, 2.5 mM ZnCl2, 25 mM Tris pH 8.0, 30° C./1 hr): 85%; HPLC Assay Conv (substrate QP5-Atto649N ([…]{LYSN3}NH2) (SEQ ID NO: 106), 37 μM Peptide, 100 nM Enzyme, 2.5 mM ZnCl2, 25 mM Tris pH 8.0, 37° C./0.5 hr): >95%; HPLC Assay Conv (substrate RRPRRP{LYSN3}NH2 (SEQ ID NO: 96), 1 mM peptide, 50 nM enzyme, 2.5 mM ZnCl2, 25 mM Tris pH 8.0, 30° C./1 hr): 55%
B2 | 100% | 32% | 4% | 0% | 100% | 33% | 26% | 100% | 0% | 100% | 0% | 69% | 0% | 63% | 0% | 100% | 100% | 100% | 4% | 99% | HPLC Assay Conv (substrate […]1 (SEQ ID NO: 156), 1 mM Peptide, 1.0 μM enzyme, 10 mM Mg(OAc)2, 50 mM MOPS pH 8, 60 mM KOAc, RT/0.5 hr): 100%; HPLC Assay Conv (substrate […], 200 μM Peptide, 2 μM, 37° C. (rest of the wrapped entry lies below the rows shown)): 55%; HPLC Assay Conv (substrate […]{LYSN3}NH2 (SEQ ID NO: 107), 200 μM Peptide, 2 μM enzyme, 10 mM MgCl2, 50 mM MOPS pH 8.0, 37° C./1 hr): 55%; HPLC Assay Conv (substrate […]{LYSN3}NH2 (SEQ ID NO: 109), 200 μM Peptide, 4 μM enzyme, 10 mM MgCl2, 50 mM MOPS pH 8.0, 37° C./1 hr): 100%
B3 | 100% | 72% | 86% | 93% | 65% | 0% | 19% | 0% | 100% | 99% | 100% | 81% | 0% | 100% | 100% | 90% | 100% | 0% | 37% | 100% | –
